From the DeepSol protein solubility set

Assay: soluble on expression in E. coli; label from the status in PepcDB or PDB records

Which “soluble on expression in E. coli” value does the source give for “MTTTMSTLPVVLVDEILARVPITSLRSLRSTCKKWEASSKTNLVGGKATARKSSHVGFILIGDKICSMKLDLNGGDDFVDTSVNQVSAFDGFAISQLFHCDGLLFCISNNHYSNYTLMVCNMYLGETRLIQNRSLFESYQNFCSYAFGYDSSKNRNHKILRNNSVSGGYEIYSLKSDSWKDLNVDLEKSIHLWRLGSVSLKGNAYFRVIKVIEEGVWEYNLLCFDFTRESFGKLLSLPFESLGDEGEGIMVISCVRDDHLAVLYQRDTLGIWISTEIEPNKVSWREFLQVDLATLDGFPDVFIAGRFIVDEEKQVVVVFGQETELDLNHGNAFIFGRDGYFTSFTVGDAPPEDFTSYVPSLVSLQIDKTGKRKARDD” here?
The value was “soluble”.

Which “soluble on expression in E. coli” value does the source give for “MRTQTFPPSSSSSRTTHPKKNRHSSNSSSMALVTPAKSSTGAAPKQSSQSGWDYWTRVYSDDAQTTGTPRDVRISDMLSSESLIRAKLLFLNVPSLPSAHKNIILNLVKRELNHDISIQDVVVVPPAKWFLNFYRPEDALKVMKHLNGYSYRGHILAVRFCYPDGTYGDESALTELVQCTNSAKGRILEKKDIVQDTFAVECWTKTEFDSLKVFEKELTNLLKAHAYLPYHTVLQSMRNLFTCKVQSELSSMFISDALAQWPTGLIRIFNRNVKVVSNTMCLSSSSYYTQRIHDSALEGGCSVHRNSWEPTVPDDIRSEVQLIQYTNSFLGHFGPQNIDVDIPIRILAQSLRGTWPKTGPKLAALLTEISSGFVLINRVLYLSSNLHHHEKIIDNLACFQDDCTDVYFLPLSCTTEDQKGKTVDYEDI” here?
The value was “not soluble”.

With “MAHHHHHHMGENRRPSRWSSERYTNLFVPNYIPPELMLYDEGQFLRAFLLRVLSIDLNRLIETKRCGDYFINIPLVPEYNSEGQRTNTPDELVAEKRLKVMDELTNLLRQHSELELNAKTQKEVVRKRYFTQEEMDNGAYGAILGARGMVHQELERLTKCKIVLAGRGITNALKDTSANAARVALEDPHARITAPNEQALQHAMERIEWILSDDPEALEFRENNRKRMAQIEGRYDPRTWVSLAERNAKNPRRMGEKREREEEAKEELDADLQEFLDEL” as the sequence, how does the “soluble on expression in E. coli” value read?
Its value is “soluble”.

Which “soluble on expression in E. coli” value does the source give for “SMTEEQPVASWALSFERLLQDPLGLAYFTEFLKKEFSAENVTFWKACERFQQIPASDTQQLAQEARNIYQEFLSSQALSPVNIDRQAWLGEEVLAEPRPDMFRAQQLQIFNLMKFDSYARFVKSPLYRECLLAEAEGRPLREPGSSRLGSPDAT” here?
Its value is “soluble”.

Which “soluble on expression in E. coli” value does the source give for “MENAKMNSLIAQYPLVKDLVALKETTWFNPGTTSLAEGLPYVGLTEQDVQDAHARLSRFAPYLAKAFPETAATGGIIESELVAIPAMQKRLEKEYQQPISGQLLLKKDSHLPISGSIKARGGIYEVLAHAEKLALEAGLLTLDDDYSKLLSPEFKQFFSQYSIAVGSTGNLGLSIGIMSARIGFKVTVHMSADARAWKKAKLRSHGVTVVEYEQDYGVAVEEGRKAAQSDPNCFFIDDENSRTLFLGYSVAGQRLKAQFAQQGRIVDADNPLFVYLPCGVGGGPGGVAFGLKLAFGDHVHCFFAEPTHSPCMLLGVHTGLHDQISVQDIGIDNLTAADGLAVGRASGFVGRAMERLLDGFYTLSDQTMYDMLGWLAQEEGIRLEPSALAGMAGPQRVCASVSYQQMHGFSAEQLRNTTHLVWATGGGMVPEEEMNQYLAKGR” here?
Its value is “soluble”.

Which “soluble on expression in E. coli” value does the source give for “MKKIRLAVIGTGMAWERLHYPAIKELEDKYEIVALCNRTRKDAEEFAKKINLSMDRVYDDYNEMLKRQDIDAVDILVPIESNYTVSEAVAKAGKDFICEKPLAANREEAKKYLELSKKYNVRIMIAENYRYSDEYNKIRDIVNSGKIGDVVYFIKNNISCFPCEMTKDTFAATEWRQHPKFYGGAFLDAAVHDIAAMRHIFGAVECVQAFGKPQAEDFNPYVSVNAHILFKNGVIGYYTYYPSGIETQKPAVGFRIFGTKGEIYLEDKTCGIINVSYHDGTSELVNFIPERGFYNELLNYYNAINGTEQISVTPEMEYGDVKMVFDILDSVSFREIIYVDEEEPKRRLEIADDEAKIHPFLQ” here?
The value was “not soluble”.

With “MDNKLSKIPTETFGEYIKRIRELRGYSQRKLSTLSDLSNTTICRIEKGSENGIENPDAETVVKLAEGLKLEKKALLIAAGYLDNENVEETTDLKECIRIALQKLGWINSYNDINEETITYVEFLLKKYGNKYKQIP” as the sequence, how does the “soluble on expression in E. coli” value read?
The value was “not soluble”.

With “MRTIVFDVDDTLYDQQQPFRNAMTKIFPNVATEDMHELYLRFRHHSDETFPKVLANEWSLDFMRFFRMNETLKDLNYPGISQEEGKIFQQVYEEELDNITMHPEVTKLLDTLQEKEIPMGIITNGPTDHQFKKVKQLNIEKWVPSQNIIISQSTGFQKPEKEIFDLACNQFCMEPEHTLYVGDSYDNDIVGARNGGWHSLWFNHRSRELPSCQPASHLAEVTCFTELCPTVEKLFNL” as the sequence, how does the “soluble on expression in E. coli” value read?
Its value is “not soluble”.

For “MAHHHHHHMDEKSEINYDEGADPSYSMHMSESHSAYEEVNKTSSDSEFVDDDYSKVISENNLESDNVKYNPDLYNLGKARQYLCPKVQEYGIPGQVSPYHFPYNEEDYLSNVDTEYDENGFPIRTNIDDNDNNEDNKKLWSWTNDGKLKLLCSQPIIPVSVVQGILRRDKIILIPQVEVTDVVIPKVYNQNIKHDVPTLNIEIMKSNVNIPNVKYVDKEIIIPIITGYTHKFVPKWDIHEVPRPVVKYIGEQKIVEVEVPEIKYIDKFVEREVIVDTVEKRVPKIIEVPKYVDEVKYVWKPIEKIVYVQKLIPKFDVNLECPPPLIVPYPVQRIKQISPVMVKKNNTEIPDYNYYDLNSPEGSLPIPEEYIHHYSRKQKMNKGLLSTCCDKKIVTEEEKNVQFVSVPLSNEHESVCVDEEIKKNINMSQENINTQLNNNMDNFIYDSDIKKNKDKMNSSINGKQQLYINS”, which “soluble on expression in E. coli” value is on record?
Its value is “not soluble”.

For “MKSVQEKRNNTRAFKTVAKSWFATKTTWSEDYQRSVWTRLETYLFPDIGNKDIAELDTGDLLVPIKKIEKLGYLEIAMRVKQYATAIMRYAVQQKMIRFNPAYDLEGAVQKLEHHHHHH”, which “soluble on expression in E. coli” value is on record?
The value was “soluble”.

Which “soluble on expression in E. coli” value does the source give for “MELVAYAMAAKLITETVQITINSISETLETINSDPTVRIDNLNELKRRNDEAHSQYMKELKEAREESDDALAKRQATADSQISELINSNNEAIRELQKKFDEDAAAYDRSIKETTREHDQKMKEMRSETREAQEKAERNHREKMSKIKEDHDKERVAALQKIDAAKKEGAEMIALVEMEKQKIVRERADEMNEHHKNMETMTKEYHQKREEIHEVIKNKKLDILKDKREHQRIEHEKISENMKNAFNALLNVQRENNAKHLVSNFQQLFEPVEDVKKLLDSVKIKIELVDGKDPKIEAEQLYDLEEIQAKKSIFENRIRRLRSILIHSSFTDRKLHEICSTTISNIETLMNKSDILSVCHHFPRAVEKQDLKKIKHYADMARSLSDTFSQELGNIIDTFSTSSGMYIIEKEHQEAIEN” here?
Its value is “soluble”.

Which “soluble on expression in E. coli” value does the source give for “MVAKISVGSSLFGALSYNQNKVDEEQGKVLLSNRMFESEDGNFSIRRCMECFDMHLPADLKTEKPIIHISLNPHPDDVLSDSQLADIAKEYMDKLGYGNQPYMVYKHEDIARHHIHIVSIRVDDTGKKINDKFEHIRSKQITRELEQKYGLHPAEKKQAADRPELKKVDYRAGDVKHQLSNTVKALASSYRFQSFTEYKALLSIYNVQAEEVKGEVNGKPYNGIVYSATNDKGEKQGNPFKSSSLGKSVGYEAIQRHIKKSTKDIQDKNLKERTRRTVGAVMKSAHSRKELEQELKRKGIDVLFRQNDTGRIYGVTFIDHENRTVLNGSRLGKDFSANVFNDLFSGSRTLSGNSKQETQEQKPEYNPTGHLENTGKAIAGLFSLLSGGNDTPPDNSQVPPPKKKKKKKQRRILEHHHHHH” here?
The value was “soluble”.

Which “soluble on expression in E. coli” value does the source give for “MAHHHHHHMKRGNEVAREMWAPSTWEQRMSLAGQFTTFCRTHEQPINEESRAALLVAILDVAPPTRPQHARMLRSMLEMNRTPLGMAILGLQKLAARSETRQARSLTKEGMDQFIRSRIDWNQRVVFRLACMTASRWSGIAALTPNNATLEADGTIILDWSVAPKTARADPHRAPRFVGIRGRDALDTITLCRTLQENEKLTNVTNAKVERALAPWDATAHSIKRGALRHAAQIVETCNLDPHVISQLAKHVDPFVLPQNTVRYFWKYTTVLTQVLPLVVLM” here?
Its value is “not soluble”.

For “MIGFAACECIIYNARSLKDKRAVLQRVMTRIRQKYNVSVAEIDHQDAWQRATIGLVAITSSRRATERELERALALIDSFPELERAATSFEWL”, which “soluble on expression in E. coli” value is on record?
Its value is “not soluble”.

For “MGSDKIHHHHHHMSRILNTEIIIPIIEKLVKKACYELDDNLMCSFRKAYDKEESKIGKETIKILIDNGEYAKKEQLACCHDTGTCIVIMEIGQHVCWEGKPLKDQVNQGVRQGYENGYLRKSMVADPLERINTNDNTPAILHTEIVDGDRVTITVMPKGGGSENMGTFKTLLPGDGIDGIKDFVLETVRRVGGNPCPPYIIGIGVGGTMDHCSWMAKKALLRPLGEFNAKPLYAQLEAELLEAVNNTGIGPLGMGGRITALGVHVDYYPCHITALPVAINFQCNASRHASEII”, which “soluble on expression in E. coli” value is on record?
Its value is “not soluble”.
